This note sets out measurements from paper PMC9939296 (Acta Pharmaceutica Sinica. B, 2022).

The target in assay [1] is DgpA (human intestinal bacterium PUE). The assay is described as follows: SEC.
For assay [2] the target is unchanged. Nature of the assay: native gel or EMSA. (In general: In EMSA bound probe runs differently from free probe, usually more slowly.)
In assay [3] the target is T1, DgpA/B/C (human intestinal bacterium PUE, UniProt A0A3Q9WUX0+A0A3Q9WWX8+A0A3Q9WXL1).
T1 sequence (A0A3Q9WWX8 1-367): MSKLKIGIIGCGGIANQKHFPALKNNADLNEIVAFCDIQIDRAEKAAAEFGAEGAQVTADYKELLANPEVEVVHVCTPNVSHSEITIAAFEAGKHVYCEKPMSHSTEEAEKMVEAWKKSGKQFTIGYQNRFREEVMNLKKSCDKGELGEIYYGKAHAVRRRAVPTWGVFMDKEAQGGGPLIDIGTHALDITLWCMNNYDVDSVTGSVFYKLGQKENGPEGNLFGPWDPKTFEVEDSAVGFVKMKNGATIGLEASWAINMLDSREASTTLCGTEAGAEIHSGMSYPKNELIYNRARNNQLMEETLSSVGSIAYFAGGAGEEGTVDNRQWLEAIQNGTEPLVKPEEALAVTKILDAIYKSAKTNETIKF
T1 sequence (A0A3Q9WXL1 1-324): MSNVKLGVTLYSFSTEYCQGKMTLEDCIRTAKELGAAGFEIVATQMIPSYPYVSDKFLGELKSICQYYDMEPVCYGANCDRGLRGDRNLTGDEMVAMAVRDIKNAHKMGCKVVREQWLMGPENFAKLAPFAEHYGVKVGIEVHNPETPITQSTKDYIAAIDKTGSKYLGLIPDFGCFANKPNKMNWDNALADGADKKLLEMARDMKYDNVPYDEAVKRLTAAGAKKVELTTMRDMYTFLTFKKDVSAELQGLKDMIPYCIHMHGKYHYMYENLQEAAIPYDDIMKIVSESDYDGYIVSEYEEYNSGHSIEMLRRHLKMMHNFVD
T1 sequence (A0A3Q9WUX0 1-142): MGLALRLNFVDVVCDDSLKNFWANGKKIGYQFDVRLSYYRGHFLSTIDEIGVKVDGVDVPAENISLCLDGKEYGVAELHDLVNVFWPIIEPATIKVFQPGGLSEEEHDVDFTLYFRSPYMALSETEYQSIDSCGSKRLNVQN
The assay is described as follows: inhibition of puerarin cleavage, HPLC. The class given is biochemical. The conditions noted are these: proposed competitive with puerarin at DgpA pocket; substrate puerarin.

As a reminder, the stoichiometry N is the number of molecules, sites or subunits per partner or assembly. For the compound DgpA (enzyme), the stoichiometry N in assay [1] and in assay [2] was 6 in each case.

As to `OC[C@H]1OC(O)[C@H](O)[C@@H](O)[C@@H]1O` (stereo partly drawn) [glucose], in assay [3], the inhibition ratio entry is reported as “cleaving activity of DgpA/B/C was significantly attenuated proportional to glucose concentration”.
